Numbering of substitutions follows the chain as printed. Numbers in names are those of the source. Like-named read-outs stand apart in the source and are kept apart here.
T1: Kif7-DM (1-543aa) (human, UniProt Q2M1P5 1-543)
T1 sequence (looked up): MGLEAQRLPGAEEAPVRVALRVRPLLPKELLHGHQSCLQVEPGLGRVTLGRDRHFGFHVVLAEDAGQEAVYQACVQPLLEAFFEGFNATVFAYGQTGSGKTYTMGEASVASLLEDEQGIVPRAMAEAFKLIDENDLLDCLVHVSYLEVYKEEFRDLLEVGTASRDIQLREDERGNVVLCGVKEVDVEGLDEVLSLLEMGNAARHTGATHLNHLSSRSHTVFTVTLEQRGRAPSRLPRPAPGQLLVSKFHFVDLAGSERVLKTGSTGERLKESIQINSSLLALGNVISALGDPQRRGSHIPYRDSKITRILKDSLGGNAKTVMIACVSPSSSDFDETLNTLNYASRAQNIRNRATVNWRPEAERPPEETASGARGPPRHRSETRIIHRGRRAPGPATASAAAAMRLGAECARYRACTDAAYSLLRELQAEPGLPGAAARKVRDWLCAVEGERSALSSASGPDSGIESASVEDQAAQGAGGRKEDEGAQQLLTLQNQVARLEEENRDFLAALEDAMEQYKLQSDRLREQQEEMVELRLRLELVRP

B1: GST-Kif7-CC-GFP (domain or fragment, human, UniProt Q2M1P5 460-600, looked up)
chain: PDSGIESASVEDQAAQGAGGRKEDEGAQQLLTLQNQVARLEEENRDFLAALEDAMEQYKLQSDRLREQQEEMVELRLRLELVRPGWGGPRLLNGLPPGSFVPRPHTAPLGGAHAHVLGMVPPACLPGDEVGSEQRGEQVTN
B2: GST-Kif7-CC D505A (domain or fragment, human, UniProt Q2M1P5 460-600, looked up)
chain: B1 chain with D46A
B3: GST-Kif7-CC (460-600aa) (domain or fragment, human, UniProt Q2M1P5 460-600, looked up)
chain: B1 chain
B4: Kif27M-Kif7CC-GFP (other, human, UniProt Q86VH2 1-475, looked up)
chain: MEEIPVKVAVRIRPLLCKEALHNHQVCVRVIPNSQQVIIGRDRVFTFDFVFGKNSTQDEVYNTCIKPLVLSLIEGYNATVFAYGQTGSGKTYTIGGGHIASVVEGQKGIIPRAIQEIFQSISEHPSIDFNVKVSYIEVYKEDLRDLLELETSMKDLHIREDEKGNTVIVGAKECHVESAGEVMSLLEMGNAARHTGTTQMNEHSSRSHAIFTISICQVHKNMEAAEDGSWYSPRHIVSKFHFVDLAGSERVTKTGNTGERFKESIQINSGLLALGNVISALGDPRRKSSHIPYRDAKITRLLKDSLGGSAKTVMITCVSPSSSNFDESLNSLKYANRARNIRNKPTVNFSPESDRIDEMEFEIKLLREALQSQQAGVSQTTQINREGSPDTNRIHSLEEQVAQLQGECLGYQCCVEEAFTFLVDLKDTVRLNEKQQHKLQEWFNMIQEVRKAVLTSFRGIGGTASLEEGPQHVTVPDSGIESASVEDQAAQGAGGRKEDEGAQQLLTLQNQVARLEEENRDFLAALEDAMEQYKLQSDRLREQQEEMVELRLRLELVRPGWGGPRLLNGLPPGSFVPRPHTAPLGGAHAHVLGMVPPACLPGDEVGSEQRGEQVTN
B5: Gli2-ZF (domain or fragment, human, UniProt P10070 418-604, looked up)
chain: KEDLDRDDCKQEAEVVIYETNCHWEDCTKEYDTQEQLVHHINNEHIHGEKKEFVCRWQACTREQKPFKAQYMLVVHMRRHTGEKPHKCTFEGCSKAYSRLENLKTHLRSHTGEKPYVCEHEGCNKAFSNASDRAKHQNRTHSNEKPYICKIPGCTKRYTDPSSLRKHVKTVHGPDAHVTKKQRNDVH
B6: Gli2-ZF-GFP (domain or fragment, human, UniProt P10070 418-604, looked up)
chain: B5 chain
B7: Kif7M-Kif27CC-GFP (other, human, UniProt Q2M1P5 1-462, looked up)
chain: MGLEAQRLPGAEEAPVRVALRVRPLLPKELLHGHQSCLQVEPGLGRVTLGRDRHFGFHVVLAEDAGQEAVYQACVQPLLEAFFEGFNATVFAYGQTGSGKTYTMGEASVASLLEDEQGIVPRAMAEAFKLIDENDLLDCLVHVSYLEVYKEEFRDLLEVGTASRDIQLREDERGNVVLCGVKEVDVEGLDEVLSLLEMGNAARHTGATHLNHLSSRSHTVFTVTLEQRGRAPSRLPRPAPGQLLVSKFHFVDLAGSERVLKTGSTGERLKESIQINSSLLALGNVISALGDPQRRGSHIPYRDSKITRILKDSLGGNAKTVMIACVSPSSSDFDETLNTLNYASRAQNIRNRATVNWRPEAERPPEETASGARGPPRHRSETRIIHRGRRAPGPATASAAAAMRLGAECARYRACTDAAYSLLRELQAEPGLPGAAARKVRDWLCAVEGERSALSSASGPDSVLQLKRELKKCQCVLAADEVVFNQKELEVKELKNQVQMMVQENKGHAVSLKEAQKVNRLQNEKIIEQQLLVDQLSEELTKLNLSVTSSAKENCGDG
B8: GST-Kif7-SCC (481-543aa) (domain or fragment, human, UniProt Q2M1P5 481-543, looked up)
chain: KEDEGAQQLLTLQNQVARLEEENRDFLAALEDAMEQYKLQSDRLREQQEEMVELRLRLELVRP
B9: Kif7-DM-GFP (1-543aa) (domain or fragment, human, UniProt Q2M1P5 1-543, looked up)
chain: T1 sequence (looked up)
B10: Kif7-DM(E502A)-GFP (domain or fragment, human, UniProt Q2M1P5 1-543, looked up)
chain: T1 sequence (looked up) with E502A

Experiments:
Gli2-ZF-GFP = molecular target: B6; test: BLI
Gli2-ZF [1] = molecular target: B5; test: BLI
SEC = molecular target: the molecule itself; test: SEC
Gli2-ZF [2] = molecular target: B5; test: BLI; remark: listed apart in the source
Kif7-DM(E502A)-GFP = molecular target: B10; test: BLI
Kif7-DM (1-543aa) = molecular target: T1, Kif7-DM (1-543aa); test: BLI
Kif7-DM-GFP (1-543aa) [3] = molecular target: B9; test: BLI
GST-Kif7-CC-GFP = molecular target: B1; test: SEC
Kif7-DM-GFP (1-543aa) [4] = molecular target: B9; test: SEC
[5] = molecular target: GDP-taxol stabilized microtubules (bovine tubulin) (bovine) (UniProt Q6B856); test: co-sedimentation
[6] = molecular target: GDP-taxol stabilized microtubules (bovine tubulin) (bovine) (UniProt Q6B856); test: co-sedimentation; remark: listed apart in the source
[7] = molecular target: the molecule itself; test: single molecule fluorescence intensity and step-photobleaching analysis

Binder: B1
- Kd (Gli2-ZF-GFP): 0.057 ± 0.009 µM
- Kd (Gli2-ZF [1]): 0.065 ± 0.022 µM

Binder: B2
- binding result (Gli2-ZF [1]): binds

Binder: B3
- Kd (Gli2-ZF [1]): 0.048 ± 0.005 µM

Binder: B4
- stoichiometry N (SEC): 2
- Kd (Gli2-ZF [2]): 0.217 ± 0.07 µM

Binder: B5
- Kd (Kif7-DM(E502A)-GFP): 0.414 ± 0.103 µM
- Kd (Kif7-DM (1-543aa)): 0.099 ± 0.025 µM
- Kd (Kif7-DM-GFP (1-543aa) [3]): 0.138 ± 0.041 µM

Binder: B6
- stoichiometry N (GST-Kif7-CC-GFP): 0.5 Gli2-ZF-GFP per Kif7-CC-GFP chain (one per dimer)
- stoichiometry N (Kif7-DM-GFP (1-543aa) [4]): 1 Gli2-ZF per Kif7-DM chain (two per dimer)

Binder: B7
- Kd (Gli2-ZF [2]): 0.397 ± 0.088 µM

Binder: B8
- Kd (Gli2-ZF [1]): 0.069 ± 0.02 µM

Binder: B9
- Kd [5]: 0.54 µM
- Kd [6]: 4.23 µM
- stoichiometry N [7]: 2

Binder: B10
- stoichiometry N (SEC): 2

Source: PMC10016618 (Nature cell biology, 2021)
